Assay results from publication PMC6572678, “Bulged and Canonical G-Quadruplex Conformations Determine NDPK Binding Specificity”.

T1: ZmNDPK1 (nucleoside diphosphate kinase 1, homolog of human NM23-H2) (Zea mays, UniProt B4FK49 1-149)
T1 sequence: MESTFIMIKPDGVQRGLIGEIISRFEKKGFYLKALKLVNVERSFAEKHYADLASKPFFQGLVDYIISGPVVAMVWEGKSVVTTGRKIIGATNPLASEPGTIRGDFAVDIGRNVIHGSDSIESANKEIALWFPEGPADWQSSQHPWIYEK


Experiments:
[1] = biological target: T1, ZmNDPK1 (nucleoside diphosphate kinase …); assay: competition; 100-fold excess vs hex4_A5U, 20 mM KCl; Filter binding: oligos annealed in 10 mM TBA phosphate pH 7.5 + 20 mM KCl, 60 min incubation; competition 1 nM FAM probe, 100 nM competitor, 5 nM protein. FRET: 10 mM TBA pH 7.5 + 100 mM KCl or LiCl, 1 h at 4 °C, 0-1000 nM protein; conditions: protein: recombinant, chain copies: 6
[2] = biological target: T1, ZmNDPK1 (nucleoside diphosphate kinase …); assay: filter binding; 20 mM KCl; Filter binding: oligos annealed in 10 mM TBA phosphate pH 7.5 + 20 mM KCl, 60 min incubation; competition 1 nM FAM probe, 100 nM competitor, 5 nM protein. FRET: 10 mM TBA pH 7.5 + 100 mM KCl or LiCl, 1 h at 4 °C, 0-1000 nM protein; conditions: protein: recombinant, chain copies: 6, label: 5' FAM (Kd)

Binder | binding signal ([1]; bulged G4, parallel) [% competition] | binding signal ([1]; bulged G4, anti-h by CD) [% competition] | also measured
GGGTTTTGAATTGAGGAGGAGTTAGGG (structured_DNA) [A5UCF] | 62 | – | –
GGGTTTTGAAGGGATTAGGAGTTAGGG (structured_DNA) [A5UAF] | – | 15 | –
GGGTTTTGAATGGAGTAGGAGTTAGGG (structured_DNA) [A5UBF] | – | 23 | –
GGGTTTTGAAGGGATTATTAGGGAGGG (structured_DNA) [A5UAH (canonical; trim_AH)] | – | – | Kd ([2]; canonical G4, parallel): 14.4 nM; binding signal ([1]; label: 5' FAM (Kd), canonical G4, parallel): 77 % competition
GGGTTTTGAATGGAGTATGAGGTAGGG (structured_DNA) [A5UBG] | – | 50 | –
GGGTTTTGAAGGGAGGAGTATTTAGGG (structured_DNA) [A5UAD] | 73 | – | –
GGGTTTTGAATTGAGGATGAGGTAGGG (structured_DNA) [A5UCG] | – | – | binding signal ([1]; bulged G4, mixed by CD): 36 % competition
GGGTTTTGAATTTATGAGGAGGGAGGG (structured_DNA) [A5UEH] | 81 | – | –
GGGTTTTGAATTGAGGATTAGGGAGGG (structured_DNA) [A5UCH] | 76 | – | –
GGGTTTTGAAGGGATGAGGATTTAGGG (structured_DNA) [A5UAE] | – | – | Kd ([2]; bulged G4, anti-h by CD): 194 nM; binding signal ([1]; label: 5' FAM (Kd), bulged G4, anti-h by CD): 16 % competition
GGGTTTTGAAGGGATTATGAGGTAGGG (structured_DNA) [A5UAG] | – | 40 | –
GGGTTTTGAATGGAGTATTAGGGAGGG (structured_DNA) [A5UBH] | 85 | – | –
GGGTTTTGAATTTAGGAGTAGGGAGGG (structured_DNA) [A5UDH] | 77 | – | –
